We go through one substance from PMC10275042.

This test concerns the target NBS1 (UniProt O60934). Kind of test: anti-Flag co-IP. The conditions noted are these: reference: wild-type Syk-Flag; sites T504.

Syk (from UniProt P43405) Syk T504A: the “binding against the reference” value is “lost”.
